Patent US20240309062A1

target: T1, mouse IFNAR2 (mouse) (UniProt O35664); assay: AlphaSeq, replicates
T1 sequence: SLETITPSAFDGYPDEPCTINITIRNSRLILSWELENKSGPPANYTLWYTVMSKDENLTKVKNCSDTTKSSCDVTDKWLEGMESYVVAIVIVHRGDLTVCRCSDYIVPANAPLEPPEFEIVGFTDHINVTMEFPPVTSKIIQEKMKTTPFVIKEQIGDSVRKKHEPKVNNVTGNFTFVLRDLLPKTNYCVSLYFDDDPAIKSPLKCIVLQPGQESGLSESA

**Q.** “IFNA2_L49P (from UniProt P01563 24-188) (ligand)” was tested. Which apparent Kd (pooled screen) did it give?
**A.** 20 nM

target: T1, mouse IFNAR2 (mouse); assay: AlphaSeq

**Q.** For “IFNA2b_L49P_A168K (from UniProt P01563 24-188) (ligand)”, which apparent Kd (pooled screen) is on record?
**A.** 461 nM

**Q.** For “IFNA2b_L49P_A168Q (from UniProt P01563 24-188) (ligand)”, which apparent Kd (pooled screen) is on record?
**A.** 321 nM

**Q.** Which apparent Kd (pooled screen) does the source give for “IFNA2b_L49P_E164D (from UniProt P01563 24-188) (ligand)” here?
**A.** 75 nM

**Q.** How did the apparent Kd (pooled screen) turn out when “IFNA2b_L49P_K135I (from UniProt P01563 24-188) (ligand)” was run?
**A.** 697 nM

**Q.** For “IFNA2b_L49P_K156T (from UniProt P01563 24-188) (ligand)”, which apparent Kd (pooled screen) is on record?
**A.** 65 nM

**Q.** For “IFNA2b_L49P_K187L (from UniProt P01563 24-188) (ligand)”, which apparent Kd (pooled screen) is on record?
**A.** 85 nM

**Q.** How did the apparent Kd (pooled screen) turn out when “IFNA2b_L49P_K187R (from UniProt P01563 24-188) (ligand)” was run?
**A.** 415 nM

**Q.** With “IFNA2b_L49P_K187Y (from UniProt P01563 24-188) (ligand)” as the substance, how does the apparent Kd (pooled screen) read?
**A.** 90 nM

**Q.** Which apparent Kd (pooled screen) does the source give for “IFNA2b_L49P_L176P (from UniProt P01563 24-188) (ligand)” here?
**A.** 69 nM

**Q.** With “IFNA2b_L49P_N179G (from UniProt P01563 24-188) (ligand)” as the substance, how does the apparent Kd (pooled screen) read?
**A.** 84 nM

**Q.** How did the apparent Kd (pooled screen) turn out when “IFNA2b_L49P_R167A (from UniProt P01563 24-188) (ligand)” was run?
**A.** 2200 nM

**Q.** “IFNA2b_L49P_R167H (from UniProt P01563 24-188) (ligand)” was tested. Which apparent Kd (pooled screen) did it give?
**A.** 480 nM

**Q.** With “IFNA2b_L49P_R167K (from UniProt P01563 24-188) (ligand)” as the substance, how does the apparent Kd (pooled screen) read?
**A.** 77 nM

**Q.** Which apparent Kd (pooled screen) does the source give for “IFNA2b_L49P_R167M (from UniProt P01563 24-188) (ligand)” here?
**A.** 2380 nM

**Q.** For “IFNA2b_L49P_R167S (from UniProt P01563 24-188) (ligand)”, which apparent Kd (pooled screen) is on record?
**A.** 65800 nM

**Q.** For “IFNA2b_L49P_R167W (from UniProt P01563 24-188) (ligand)”, which apparent Kd (pooled screen) is on record?
**A.** 6440 nM

**Q.** For “IFNA2b_L49P_R172A (from UniProt P01563 24-188) (ligand)”, which apparent Kd (pooled screen) is on record?
**A.** 6870 nM

**Q.** For “IFNA2b_L49P_R172E (from UniProt P01563 24-188) (ligand)”, which apparent Kd (pooled screen) is on record?
**A.** 47300 nM

**Q.** Which apparent Kd (pooled screen) does the source give for “IFNA2b_L49P_R172G (from UniProt P01563 24-188) (ligand)” here?
**A.** 2260 nM

**Q.** How did the apparent Kd (pooled screen) turn out when “IFNA2b_L49P_R172I (from UniProt P01563 24-188) (ligand)” was run?
**A.** 310 nM

**Q.** Which apparent Kd (pooled screen) does the source give for “IFNA2b_L49P_R172M (from UniProt P01563 24-188) (ligand)” here?
**A.** 227 nM

**Q.** How did the apparent Kd (pooled screen) turn out when “IFNA2b_L49P_R172N (from UniProt P01563 24-188) (ligand)” was run?
**A.** 18100 nM

**Q.** For “IFNA2b_L49P_R172Q (from UniProt P01563 24-188) (ligand)”, which apparent Kd (pooled screen) is on record?
**A.** 8550 nM

**Q.** For “IFNA2b_L49P_R172S (from UniProt P01563 24-188) (ligand)”, which apparent Kd (pooled screen) is on record?
**A.** 6190 nM

**Q.** How did the apparent Kd (pooled screen) turn out when “IFNA2b_L49P_R172V (from UniProt P01563 24-188) (ligand)” was run?
**A.** 566 nM

**Q.** “IFNA2b_L49P_R172W (from UniProt P01563 24-188) (ligand)” was tested. Which apparent Kd (pooled screen) did it give?
**A.** 9950 nM

**Q.** “IFNA2b_L49P_S159H (from UniProt P01563 24-188) (ligand)” was tested. Which apparent Kd (pooled screen) did it give?
**A.** 65 nM

**Q.** How did the apparent Kd (pooled screen) turn out when “IFNA2b_L49P_S183Y (from UniProt P01563 24-188) (ligand)” was run?
**A.** 75 nM

**Q.** For “IFNA2b_L49P_V165D (from UniProt P01563 24-188) (ligand)”, which apparent Kd (pooled screen) is on record?
**A.** 26100 nM

**Q.** Which apparent Kd (pooled screen) does the source give for “IFNA2b_L49P_V165E (from UniProt P01563 24-188) (ligand)” here?
**A.** 16400 nM

**Q.** With “IFNA2b_L49P_V165F (from UniProt P01563 24-188) (ligand)” as the substance, how does the apparent Kd (pooled screen) read?
**A.** 22900 nM

**Q.** Which apparent Kd (pooled screen) does the source give for “IFNA2b_L49P_V165G (from UniProt P01563 24-188) (ligand)” here?
**A.** 34400 nM

**Q.** How did the apparent Kd (pooled screen) turn out when “IFNA2b_L49P_V165Q (from UniProt P01563 24-188) (ligand)” was run?
**A.** 18600 nM

**Q.** With “IFNA2b_L49P_V165R (from UniProt P01563 24-188) (ligand)” as the substance, how does the apparent Kd (pooled screen) read?
**A.** 8960 nM

**Q.** With “IFNA2b_L49P_V165T (from UniProt P01563 24-188) (ligand)” as the substance, how does the apparent Kd (pooled screen) read?
**A.** 5950 nM

**Q.** How did the apparent Kd (pooled screen) turn out when “IFNA2b_M44N_A168H (from UniProt P01563 24-188) (ligand)” was run?
**A.** 802 nM

**Q.** How did the apparent Kd (pooled screen) turn out when “IFNA2b_M44N_A168K (from UniProt P01563 24-188) (ligand)” was run?
**A.** 23300 nM

**Q.** How did the apparent Kd (pooled screen) turn out when “IFNA2b_M44N_A168N (from UniProt P01563 24-188) (ligand)” was run?
**A.** 1500 nM

**Q.** Which apparent Kd (pooled screen) does the source give for “IFNA2b_M44N_A168Q (from UniProt P01563 24-188) (ligand)” here?
**A.** 20000 nM

**Q.** With “IFNA2b_M44N_A168S (from UniProt P01563 24-188) (ligand)” as the substance, how does the apparent Kd (pooled screen) read?
**A.** 545 nM

**Q.** “IFNA2b_M44N_E155R (from UniProt P01563 24-188) (ligand)” was tested. Which apparent Kd (pooled screen) did it give?
**A.** 7660 nM

**Q.** “IFNA2b_M44N_G125Y (from UniProt P01563 24-188) (ligand)” was tested. Which apparent Kd (pooled screen) did it give?
**A.** 5820 nM

**Q.** For “IFNA2b_M44N_K135G (from UniProt P01563 24-188) (ligand)”, which apparent Kd (pooled screen) is on record?
**A.** 416 nM

**Q.** “IFNA2b_M44N_K156E (from UniProt P01563 24-188) (ligand)” was tested. Which apparent Kd (pooled screen) did it give?
**A.** 24400 nM

**Q.** With “IFNA2b_M44N_K187E (from UniProt P01563 24-188) (ligand)” as the substance, how does the apparent Kd (pooled screen) read?
**A.** 415 nM

**Q.** “IFNA2b_M44N_L176R (from UniProt P01563 24-188) (ligand)” was tested. Which apparent Kd (pooled screen) did it give?
**A.** 541 nM

**Q.** Which apparent Kd (pooled screen) does the source give for “IFNA2b_M44N_L184E (from UniProt P01563 24-188) (ligand)” here?
**A.** 811 nM

**Q.** Which apparent Kd (pooled screen) does the source give for “IFNA2b_M44N_R167A (from UniProt P01563 24-188) (ligand)” here?
**A.** 5780 nM

**Q.** Which apparent Kd (pooled screen) does the source give for “IFNA2b_M44N_R167I (from UniProt P01563 24-188) (ligand)” here?
**A.** 4900 nM

**Q.** How did the apparent Kd (pooled screen) turn out when “IFNA2b_M44N_R167L (from UniProt P01563 24-188) (ligand)” was run?
**A.** 2260 nM

**Q.** With “IFNA2b_M44N_R167T (from UniProt P01563 24-188) (ligand)” as the substance, how does the apparent Kd (pooled screen) read?
**A.** 7010 nM

**Q.** Which apparent Kd (pooled screen) does the source give for “IFNA2b_M44N_R172W (from UniProt P01563 24-188) (ligand)” here?
**A.** 8770 nM

**Q.** “IFNA2b_M44N_S138W (from UniProt P01563 24-188) (ligand)” was tested. Which apparent Kd (pooled screen) did it give?
**A.** 942 nM

**Q.** With “IFNA2b_M44N_S159D (from UniProt P01563 24-188) (ligand)” as the substance, how does the apparent Kd (pooled screen) read?
**A.** 34500 nM

**Q.** How did the apparent Kd (pooled screen) turn out when “IFNA2b_M44N_S175E (from UniProt P01563 24-188) (ligand)” was run?
**A.** 484 nM

**Q.** Which apparent Kd (pooled screen) does the source give for “IFNA2b_M44N_S177D (from UniProt P01563 24-188) (ligand)” here?
**A.** 12300 nM

**Q.** “IFNA2b_M44N_T150G (from UniProt P01563 24-188) (ligand)” was tested. Which apparent Kd (pooled screen) did it give?
**A.** 528 nM

target: T1, mouse IFNAR2 (mouse); assay: AlphaSeq (yeast mating, Aga2 display)

**Q.** Which apparent Kd (pooled screen) does the source give for “IFNA2b_L49P_A168D (from UniProt P01563 24-188) (ligand)” here?
**A.** 586 nM

**Q.** For “IFNA2b_L49P_K156Q (from UniProt P01563 24-188) (ligand)”, which apparent Kd (pooled screen) is on record?
**A.** 73 nM

**Q.** For “IFNA2b_L49P_L140N (from UniProt P01563 24-188) (ligand)”, which apparent Kd (pooled screen) is on record?
**A.** 480 nM

**Q.** Which apparent Kd (pooled screen) does the source give for “IFNA2b_L49P_R167I (from UniProt P01563 24-188) (ligand)” here?
**A.** 708 nM

**Q.** How did the apparent Kd (pooled screen) turn out when “IFNA2b_L49P_R167L (from UniProt P01563 24-188) (ligand)” was run?
**A.** 1950 nM

**Q.** Which apparent Kd (pooled screen) does the source give for “IFNA2b_L49P_R167T (from UniProt P01563 24-188) (ligand)” here?
**A.** 3000 nM

**Q.** “IFNA2b_L49P_R167V (from UniProt P01563 24-188) (ligand)” was tested. Which apparent Kd (pooled screen) did it give?
**A.** 1740 nM

**Q.** How did the apparent Kd (pooled screen) turn out when “IFNA2b_M44N_A120T (from UniProt P01563 24-188) (ligand)” was run?
**A.** 591 nM

**Q.** With “IFNA2b_M44N_E130M (from UniProt P01563 24-188) (ligand)” as the substance, how does the apparent Kd (pooled screen) read?
**A.** 825 nM

**Q.** For “IFNA2b_M44N_E188R (from UniProt P01563 24-187) (ligand)”, which apparent Kd (pooled screen) is on record?
**A.** 520 nM

**Q.** How did the apparent Kd (pooled screen) turn out when “IFNA2b_M44N_V128G (from UniProt P01563 24-188) (ligand)” was run?
**A.** 472 nM
